This note sets out measurements from publication PMC8458385, “Molecular basis for PICS-mediated piRNA biogenesis and cell division” (Nature Communications, 2021).

T1: PICS-1^5-282 (C. elegans, UniProt O76616 5-282)
T1 construct: Cloned into pET28-MHL; also called almost full-length PICS-1; source: E. coli BL21(DE3), purified (Ni-NTA, TEV, second Ni-NTA); not shown: His tag (from the Ni-NTA purification), N-terminal, cleaved
T1 sequence (looked up): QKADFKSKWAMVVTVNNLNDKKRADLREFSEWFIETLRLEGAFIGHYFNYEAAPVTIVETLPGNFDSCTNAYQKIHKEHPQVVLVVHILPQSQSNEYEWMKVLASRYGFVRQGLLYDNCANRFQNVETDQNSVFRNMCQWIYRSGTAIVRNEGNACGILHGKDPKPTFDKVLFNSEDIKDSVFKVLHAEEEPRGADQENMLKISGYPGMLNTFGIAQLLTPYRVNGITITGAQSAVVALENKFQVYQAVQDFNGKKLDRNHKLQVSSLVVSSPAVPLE

T2: PICS-1^5-200 (C. elegans, UniProt O76616 5-200)
T2 construct: PICS-1 (PID-3), C. elegans, residues 5-200; Cloned into pET28-MHL; also called PICS-1^ΔRRM; PICS1^ΔRRM; source: E. coli BL21(DE3), purified (Ni-NTA, TEV, second Ni-NTA); not shown: His tag (from the Ni-NTA purification), N-terminal, cleaved
T2 sequence (looked up): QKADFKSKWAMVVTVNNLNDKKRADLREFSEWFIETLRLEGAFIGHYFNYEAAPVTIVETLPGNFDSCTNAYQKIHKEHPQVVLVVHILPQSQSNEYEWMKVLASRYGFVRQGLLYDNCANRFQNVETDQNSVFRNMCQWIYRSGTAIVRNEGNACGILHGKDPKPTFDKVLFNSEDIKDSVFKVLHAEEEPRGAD

T3: ERH-2 D67A (C. elegans, UniProt Q20057 1-113, D67A)
T3 construct: ERH-2, C. elegans; Cloned into pET28-MHL; also called D67A of ERH-2; source: E. coli BL21(DE3), purified as the wild type; not shown: His tag (from the Ni-NTA purification), N-terminal, cleaved
T3 sequence (looked up): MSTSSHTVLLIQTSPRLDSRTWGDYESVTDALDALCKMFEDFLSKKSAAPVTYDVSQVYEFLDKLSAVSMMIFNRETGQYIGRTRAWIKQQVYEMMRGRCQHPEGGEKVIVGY

T4: ERH-2^1-103-(Gly-Ser-Ser)7-PICS-1^180-200 (C. elegans, UniProt Q20057 1-103; O76616 180-200)
T4 construct: ERH-2, C. elegans, residues 1-103; 21-aa linker (Gly-Ser-Ser)7; PICS-1 (PID-3), C. elegans, EBM, residues 180-200; Cloned into pET28-MHL; The results on ITC say only 'ERH-2' for the fused part; the methods describe only the 1-103 fusion; also called ERH-2-(GSS)7-PICS-1; ERH-2^1-103-(GSS)7-PICS-1^180-200; source: E. coli BL21(DE3), purified (Ni-NTA, TEV, second Ni-NTA, Superdex 75); not shown: His …
T4 chain: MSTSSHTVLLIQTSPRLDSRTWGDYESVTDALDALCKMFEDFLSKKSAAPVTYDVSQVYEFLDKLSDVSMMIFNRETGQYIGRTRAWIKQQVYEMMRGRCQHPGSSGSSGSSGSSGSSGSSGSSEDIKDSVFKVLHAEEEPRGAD

T5: TOFU-6^RRM (residues 2-92) (C. elegans, UniProt Q09293 2-92)
T5 construct: TOFU-6, C. elegans, RRM domain, residues 2-92; Gene codon-optimised and synthesised; for the crystal co-expressed with PICS-1^RRM from a modified pETDuet-1; also called TOFU-6 RRM domain; TOFU-6^C; source: E. coli BL21(DE3), purified (Ni-NTA, TEV, second Ni-NTA; complex with PICS-1^RRM also Superdex 75); not shown: His tag (from the Ni-NTA purification), N-terminal, cleaved
T5 sequence (looked up): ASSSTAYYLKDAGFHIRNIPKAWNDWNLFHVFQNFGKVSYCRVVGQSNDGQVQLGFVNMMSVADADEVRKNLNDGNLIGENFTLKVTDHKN

T6: TOFU-6^RRM (L73M) (SeMet) (C. elegans, UniProt Q09293 2-92, L73M, seleno-methionine (SeMet) labeled)
T6 construct: TOFU-6, C. elegans, RRM domain, residues 2-92; also called SeMet TOFU-6^RRM(L73M); source: E. coli BL21(DE3) in M9 medium with SeMet, purified with PICS-1^RRM (I233M) (Ni-NTA, TEV, Superdex 75); not shown: His tag (from the Ni-NTA purification), N-terminal, cleaved
T6 sequence (looked up): T5 sequence (looked up) with L72M

B1: ERH-2 (1-103), the ERH-2 part of the crystallised fusion proteins (domain or fragment, C. elegans, UniProt Q20057 1-103, looked up)
chain: MSTSSHTVLLIQTSPRLDSRTWGDYESVTDALDALCKMFEDFLSKKSAAPVTYDVSQVYEFLDKLSDVSMMIFNRETGQYIGRTRAWIKQQVYEMMRGRCQHP
notes: ERH-2, C. elegans, residues 1-103; In the crystals it stood joined on one chain with PICS-1^180-200 (via (GSS)7) or TOST-1^34-54 (via (GSS)6); written apart for the rows of the two partners; also called ERH-2^A; ERH-2^B; source: E. coli BL21(DE3), purified as part of the fusion proteins m8 and m9
B2: ERH-2 (natural protein, C. elegans, UniProt Q20057 1-113, looked up)
chain: T3 sequence (looked up) with A67D
notes: ERH-2, C. elegans, amplified from a cDNA library; also called wild type ERH-2; source: E. coli BL21(DE3), purified (Ni-NTA, TEV, second Ni-NTA); not shown: His tag (from the Ni-NTA purification), N-terminal, cleaved
B3: SUMO-fused PICS-1 ERH-2 binding motif (EBM, residues 180-200) (domain or fragment, C. elegans, UniProt O76616 180-200, looked up)
chain: EDIKDSVFKVLHAEEEPRGAD
notes: Cloned into pET28-SUMO; the Kds are for the SUMO fusion protein; also called PICS-1^EBM; PICS-1^180-200; source: E. coli BL21(DE3), purified (Ni-NTA); not shown: SUMO, N-terminal, kept
B4: SUMO-fused PID-1^50-70 (domain or fragment, C. elegans, UniProt Q19541 50-70, looked up)
chain: TNLHRKVTLSDRFELAALGYE
notes: PID-1, C. elegans, residues 50-70; the results say it was fused to the C-terminus of SUMO; also called PID-1 fragment; source: E. coli BL21(DE3), purified (Ni-NTA); not shown: SUMO, N-terminal, kept
B5: PICS-1^RRM (residues 201-282) (domain or fragment, C. elegans, UniProt O76616 201-282, looked up)
chain: QENMLKISGYPGMLNTFGIAQLLTPYRVNGITITGAQSAVVALENKFQVYQAVQDFNGKKLDRNHKLQVSSLVVSSPAVPLE
notes: Homodimer in the crystal and by gel filtration; also called PICS-1(PID-3) RRM domain; PID-3; source: E. coli BL21(DE3), purified (Ni-NTA, TEV, second Ni-NTA, Superdex 75); not shown: His tag (from the Ni-NTA purification), N-terminal, cleaved
B6: PICS-1^RRM (I233M) (SeMet) (domain or fragment, C. elegans, UniProt O76616 201-282, looked up)
chain: B5 chain with I33M
modifications: seleno-methionine (SeMet) labeled
notes: also called SeMet PICS-1^RRM(I233M); source: E. coli BL21(DE3) in M9 medium with SeMet, purified with TOFU-6^RRM (L73M) (Ni-NTA, TEV, Superdex 75); not shown: His tag (from the Ni-NTA purification), N-terminal, cleaved

Series [1] deals with the molecule itself. Put plainly: crystal structure; fusion protein ERH-2^1-103-(GSS)7-PICS-1^180-200, 2.40 Å; 15% 2-propanol, 0.1 M sodium citrate pH 5.0, 10% PEG 10000, 18 °C.
The target in another series is T1, PICS-1^5-282. Description: SEC; ERH-2 and TOFU-6^RRM mixed with PICS-1 constructs, Superose 6 Increase 10/300 GL, 20 mM Tris hydrochloride pH 8.5, 200 mM NaCl; fractions on SDS-PAGE. As to conditions: both partners purified. (SEC sorts molecules by how far they enter the pores of the column.)
The next series concerns the target T2, PICS-1^5-200. The description is as above. The conditions noted are these: both partners purified.
In the next series the target is T3, ERH-2 D67A. Description: ITC; MicroCal ITC200, 25 °C, 20 mM Tris pH 8.5, 200 mM NaCl or 20 mM MES pH 6.5, 200 mM NaCl; 1–2 mM in the syringe into 30–50 μM in the cell; one-site binding model. As to conditions: both partners purified.
The series “ERH-2” addresses B2. The series is described as above. The conditions noted are these: both partners purified.
The target of series [2] is T4, ERH-2^1-103-(Gly-Ser-Ser)7-PICS-1^180-20 …. The description is as above. The conditions noted are these: both partners purified.
Series [3] deals with the molecule itself. Description: SEC; wild type and F217E of PICS-1^RRM on HiLoad 16/600 Superdex 75, 20 mM Tris hydrochloride pH 8.5, 200 mM NaCl.
Series [4] addresses T5, TOFU-6^RRM (residues 2-92). Put plainly: ITC; MicroCal ITC200, 25 °C, 20 mM Tris pH 8.5, 200 mM NaCl or 20 mM MES pH 6.5, 200 mM NaCl; 1–2 mM in the syringe into 30–50 μM in the cell; one-site binding model. As to conditions: both partners purified. Background: In ITC the heat of successive injections is recorded.
The target of series [5] is T6, TOFU-6^RRM (L73M) (SeMet). Description: crystal structure; SeMet TOFU-6^RRM (L73M)/PICS-1^RRM (I233M) complex, 1.95 Å; 2% 1,4-dioxane, 0.1 M Tris hydrochloride pH 8.0, 15% PEG 3350, 0.01 M nickel chloride, 18 °C. The conditions noted are these: both partners purified.
Series [6] deals with the molecule itself. The series is described as above.

Substitutions are numbered along the chain they refer to. Names and notes keep the numbering of the source.

In the case of B1, the binding result in [1] is listed as “binds”.

Turning to B2, the binding result with PICS-1^5-282 and with PICS-1^5-200 was “binds” throughout.

Broadly, the Kd is the concentration at which binding is half-saturated. A higher Kd goes with lower affinity. Consider B3, for which the Kd came out at 4.3 µM with ERH-2 D67A and 8.5 µM with ERH-2.

For B4, the values for the Kd (with ERH-2; in [2]) were 18 µM and 12 µM, respectively.

B5: in series [3], the binding result is given as “binds”. In [4], the affinity, expressed as Kd, was 0.0062 µM.

Turning to B6, the binding result in [5] and in series [6] was “binds” throughout.
